Where two headings read alike, the source gives them in different places. *1 amine or outer side, *2 acyl side, *3 side chain or, on linkers, in order; H or OH if unused. Where a SMILES comes first, the peptide text is derived from it. [ ]: non-standard residue; d: D form. The star is where a group is joined. ξ: configuration not given here. Exatecan = CC[C@@]1(O)C(=O)OCc2c1cc1n(c2=O)Cc2c-1nc1cc(F)c(C)c3c1c2[C@@H](N*)CC3; Dolaproine = CO[C@@H]([C@@H]1CCCN1)[C@@H](C)C(=O)O; X2 = CO[C@@H]([C@H]1CCCN1[*:1])[C@@H](C)C(=O)[*:2]; ξDil = CC[C@H](C)C([C@@H](CC(=O)[*:2])OC)N(C)[*:1]; Hexanoyl(6-maleimido) = O=C1C=CC(=O)N1CCCCCC(=O)*; Propanoyl(3-maleimido) = O=C1C=CC(=O)N1CCC(=O)*; Dil = CC[C@H](C)[C@H](NC)[C@@H](CC(=O)O)OC; PABC = O=C(OCc1ccc(N[*:1])cc1)[*:2]; NHCH2OCH2CO = O=C(COCN[*:1])[*:2]; X3 = C[C@@H](N*)[C@@H](O)c1ccccc1; NMeV = CN[C@H](C(=O)O)C(C)C
Tests used:
[1] = assay type: physicochemical; settings: ADC with Her2 antibody, RP-HPLC-MS
Experimental: (§1) A drug-antibody conjugating ratio (also known as drug-antibody ratio, abbreviated as DAR) of the antibody-drug conjugate was tested using reversed-phase high-performance liquid chromatography-mass chromatography (RP-HPLC-MS). The ADC sample was diluted with 50 mmol/L Tris buffer (pH 8.0) to 1 mg/ml. A fresh dithiothreitol (DTT) stock solution was added to achieve a final DTT concentration of 50 mmol/L. Incubation was performed at 37° C. for 30 minutes. A PLRP-S chromatographic column (1000 Å pores, 2.1×50 mm, 5) μm) was used, and the column temperature was 70° C. The flow rate was 0.25 mL/min. […] of sample was injected; the mobile phase A was an aqueous solution of 0.1% formic acid (V/V) and 0.025% trifluoroacetic acid (V/V), and the mobile phase B was an acetonitrile solution of 0.1% formic acid (V/V) and 0.025% trifluoroacetic acid (V/V); the running time was 0-3 minutes, where 27% of mobile phase B ran for 3 minutes, and the mobile phase B ran from 27% to 49% within 3-25 minutes, from 49% to 95% within 25-26 minutes, at 95% within […], from 95% to 27% within 30-31.5 minutes, and at 27% for 31.5-45 minutes. […] Mass spectrometry drying gas was at a temperature of 350° C. and a flow rate of 7.0 L/min, the pressure of an atomizer was 40 psi, capillary voltage was positive 3000V and negative 3000V, and the mass range was 500-1600 m/z. The molecular weight of each mass spectrometry peak (ranging from 20000 to 70000) was calculated by deconvolution and compared with light and heavy chain molecular weights of un-conjugated antibodies to calculate a drug load at each peak, so as to determine the load of a corresponding ultraviolet peak. Area percentages of heavy and light chain ultraviolet peaks were calculated through integration, and a weighted average DAR of the antibody-drug conjugate was calculated by combining the area percentages with the drug load distribution of each peak.

[2] = Polymer (high molecular component) content of antibody-drug conjugates by SE-HPLC; assay type: physicochemical; settings: ADC with Her2 antibody
Experimental: (§2) Polymers (high molecular components) of the antibody-drug conjugates were tested using molecular exclusion high-performance liquid chromatography (SE-HPLC). A Biocore SEC chromatographic column (7.8×300 mm, […]) was used, and the mobile phase was 50 mM phosphate containing 300 mM sodium chloride (pH 6.8), with a flow rate of 0.5 mL/min. Samples of […] and 10 μl were injected. […] The polymer content of an antibody-drug conjugate was calculated using an area normalization method.

[3] = Naked antibody content of antibody-drug conjugates by hydrophobic interaction chromatography (HIC); assay type: physicochemical; settings: ADC with Her2 antibody
Experimental: The content of naked antibodies in the antibody-drug conjugate was tested using hydrophobic interaction chromatography (HIC). A Biocore HIC-Butyl chromatographic column (4.6×150 mm, 5 μm) was used. The mobile phase A was a 100 mM phosphate aqueous solution containing 2 M ammonium sulfate (pH 7.0), and the mobile phase B was a 100 mM phosphate aqueous solution (pH 7.0): isopropanol=80:20 (V/V). Samples of 50 μg and 10 μl were injected. The mobile phase A at the flow rate of 1 mL/min ran at 100% for 3 minutes. Within 3-25 minutes, the mobile phase B ran from […] to 100%, while the mobile phase B decreased to 0% at 25.1 and ran to 30 minutes. […] The naked antibody content of the antibody-drug conjugate was calculated using an area normalization method based on the retention time of a naked antibody peak located by the antibody of the antibody-drug conjugate.

[4] = Stability (placement) test of ADCs at 40° C. in dark for 14 days, DAR and polymer content; assay type: physicochemical
Experimental: as §2, §1
Stability testing method: The stability of the obtained ADCs was tested for 14 days. The ADCs were placed at 40° C. in dark. Sampling points were days 0, 7, and 14. The polymer content and DAR value of samples at different sampling points were tested according to the method in Experimental Example 1.

Row | Structure (SMILES) | DAR [1] | Polymer content (%) [2] [%] | Naked antibody content (%) [3] [%] | DAR ([4]; Day 0, 40° C. in dark) | Polymer content (%) ([4]; Day 0, 40° C. in dark) | DAR ([4]; Day 7, 40° C. in dark) | Polymer content (%) ([4]; Day 7, 40° C. in dark) | DAR ([4]; Day 14, 40° C. in dark) | Polymer content (%) ([4]; Day 14, 40° C. in dark)
1 | C=C1C[C@@H]2CC[C@@]34C[C@H]5OC6C(O[C@H]7CC[C@H](CC(=O)C[C@@H]8[C@@H](OC)[C@@H](CC(O)CNC(=O)CNC(=O)[C@H](Cc9ccccc9)NC(=O)CNC(=O)CNC(=O)CCOCCOCCC(CCOCCOCCC(=O)NCC(=O)NCC(=O)N[C@@H](Cc9ccccc9)C(=O)NCC(=O)NCOCC(=O)N[C@H]9CCc%10c(C)c(F)cc%11nc%12c(c9c%10%11)Cn9c-%12cc%10c(c9=O)COC(=O)[C@]%10(O)CC)C9CCC(NC(=O)CCOCCOCCOCCOCCN%10C(=O)C=CC%10=O)CC9)O[C@H]8C[C@H]8O[C@@H](CC[C@@H]1O2)C[C@@H](C)C8=C)O[C@@H]7[C@@H]6O3)[C@H]5O4 (stereo partly shown) [Comparative Example 7, reference compound] | 0.86 | 60.31 | 53.82 | – | – | – | – | – | –
2 | C=C1C[C@@H]2CC[C@@]34C[C@H]5OC6C(O[C@H]7CC[C@H](CC(=O)C[C@@H]8[C@@H](OC)[C@@H](C[C@H](O)CNC(=O)CNC(=O)[C@H](Cc9ccccc9)NC(=O)CNC(=O)CNC(=O)CCOCCOCCN(CCOCCOCCC(=O)NCC(=O)NCC(=O)N[C@@H](Cc9ccccc9)C(=O)NCC(=O)NCOCC(=O)N[C@H]9CCc%10c(C)c(F)cc%11nc%12c(c9c%10%11)Cn9c-%12cc%10c(c9=O)COC(=O)[C@]%10(O)CC)C9CCC(NC(=O)CCCCCN%10C(=O)C=CC%10=O)CC9)O[C@H]8C[C@H]8O[C@@H](CC[C@@H]1O2)C[C@@H](C)C8=C)O[C@@H]7[C@@H]6O3)[C@H]5O4 (stereo partly shown) [Comparative Example 9, reference compound] | 0.91 | 70.65 | 57.78 | – | – | – | – | – | –
3 | C=C1C[C@@H]2CC[C@@]34C[C@H]5OC6C(O[C@H]7CC[C@H](CC(=O)C[C@@H]8[C@@H](OC)[C@@H](C[C@H](O)CNC(=O)OCc9ccc(NC(=O)[C@H](CCCNC(N)=O)NC(=O)[C@@H](NC(=O)CN%10CCOCCN(C(=O)CCN%11C(=O)C=CC%11=O)CCOCC%10)C(C)C)cc9)O[C@H]8C[C@H]8O[C@@H](CC[C@@H]1O2)C[C@@H](C)C8=C)O[C@@H]7[C@@H]6O3)[C@H]5O4 [Example 87] | 3.85 | 1.12 | 2.11 | 3.85 | 1.12 | 3.87 | 1.15 | 3.81 | 1.24
4 | C=C1C[C@@H]2CC[C@@]34C[C@H]5OC6C(O[C@H]7CC[C@H](CC(=O)C[C@@H]8[C@@H](OC)[C@@H](C[C@H](O)CNC(=O)CNC(=O)[C@H](Cc9ccccc9)NC(=O)CNC(=O)CNC(=O)CCOCCOCCN(CCOCCOCCC(=O)NCC(=O)NCC(=O)N[C@@H](Cc9ccccc9)C(=O)NCC(=O)NCOCC(=O)N[C@H]9CCc%10c(C)c(F)cc%11nc%12c(c9c%10%11)Cn9c-%12cc%10c(c9=O)COC(=O)[C@]%10(O)CC)C9CCC(C(=O)CCOCCOCCN%10C(=O)C=CC%10=O)CC9)O[C@H]8C[C@H]8O[C@@H](CC[C@@H]1O2)C[C@@H](C)C8=C)O[C@@H]7[C@@H]6O3)[C@H]5O4 (stereo partly shown) [Comparative Example 13, reference compound] | 1.01 | 78.50 | 60.37 | – | – | – | – | – | –
5 | C=C1C[C@@H]2CC[C@@]34C[C@H]5OC6C(O[C@H]7CC[C@H](CC(=O)C[C@@H]8[C@@H](OC)[C@@H](C[C@H](O)CNC(=O)CNC(=O)[C@H](Cc9ccccc9)NC(=O)CNC(=O)CNC(=O)CCN9C(=O)C=CC9=O)O[C@H]8C[C@H]8O[C@@H](CC[C@@H]1O2)C[C@@H](C)C8=C)O[C@@H]7[C@@H]6O3)[C@H]5O4 [Comparative Example 12, reference compound] | 2.67 | 13.18 | 7.00 | – | – | – | – | – | –
6 | C=C1C[C@@H]2CC[C@@]34C[C@H]5OC6C(O[C@H]7CC[C@H](CC(=O)C[C@@H]8[C@@H](OC)[C@@H](C[C@H](O)CNC(=O)CNC(=O)[C@H](Cc9ccccc9)NC(=O)CNC(=O)CNC(=O)CCOCCOCCN(CCOCCOCCC(=O)NCC(=O)NCC(=O)N[C@@H](Cc9ccccc9)C(=O)NCC(=O)NCOCC(=O)N[C@H]9CCc%10c(C)c(F)cc%11nc%12c(c9c%10%11)Cn9c-%12cc%10c(c9=O)COC(=O)[C@]%10(O)CC)C(=O)CN9CCOCCOCCOCCOCCN(C(=O)CCCCCC%10C(=O)C=CC%10=O)CCOCCOCCOCCOCC9)O[C@H]8C[C@H]8O[C@@H](CC[C@@H]1O2)C[C@@H](C)C8=C)O[C@@H]7[C@@H]6O3)[C@H]5O4 [Example 14] | 3.82 | 0.59 | 4.97 | 3.82 | 0.59 | 3.83 | 0.63 | 3.84 | 0.72
7 | CC[C@@]1(O)C(=O)OCc2c1cc1n(c2=O)Cc2c-1nc1cc(F)c(C)c3c1c2[C@@H](NC(=O)COCNC(=O)CNC(=O)[C@H](Cc1ccccc1)NC(=O)CNC(=O)CNC(=O)CCCCCN1C(=O)C=CC1=O)CC3 [Comparative Example 14, reference compound] ({Hexanoyl(6-maleimido)}-GGFG[NHCH2OCH2CO]-Exatecan) | 8.00 | – | – | – | – | – | – | – | –
8 | C=C1C[C@@H]2CC[C@@]34C[C@H]5OC6C(O[C@H]7CC[C@H](CC(=O)C[C@@H]8[C@@H](OC)[C@@H](C[C@H](O)CNC(=O)CNC(=O)[C@H](Cc9ccccc9)NC(=O)CNC(=O)CNC(=O)CCOCCOCCN(CCOCCOCCC(=O)NCC(=O)NCC(=O)N[C@@H](Cc9ccccc9)C(=O)NCC(=O)NCOCC(=O)N[C@H]9CCc%10c(C)c(F)cc%11nc%12c(c9c%10%11)Cn9c-%12cc%10c(c9=O)COC(=O)[C@]%10(O)CC)C(=O)CCCCCN9C(=O)C=CC9=O)O[C@H]8C[C@H]8O[C@@H](CC[C@@H]1O2)C[C@@H](C)C8=C)O[C@@H]7[C@@H]6O3)[C@H]5O4 [Comparative Example 3, reference compound] | 0.81 | 50.73 | 60.77 | – | – | – | – | – | –
9 | CC[C@H](C)C([C@@H](CC(=O)N1CCC[C@@H]1[C@H](OC)[C@@H](C)C(=O)N[C@H](C)[C@@H](O)c1ccccc1)OC)N(C)C(=O)[C@@H](NC(=O)[C@H](C(C)C)N(C)C(=O)OCc1ccc(NC(=O)CNC(=O)[C@H](Cc2ccccc2)NC(=O)CNC(=O)CNC(=O)CCN2C(=O)C=CC2=O)cc1)C(C)C (stereo partly shown) [Comparative Example 8, reference compound] ({Propanoyl(3-maleimido)}-GGFG[PABC][NMeV]V[ξDil][X2]-X3) | 2.57 | 12.37 | 10.15 | – | – | – | – | – | –
10 | CCc1c2c(nc3ccc(O)cc13)-c1cc3c(c(=O)n1C2)COC(=O)[C@@]3(CC)OC(=O)N(C)CCN(C)C(=O)COCNC(=O)CNC(=O)[C@H](Cc1ccccc1)NC(=O)CNC(=O)CNC(=O)CCN1C(=O)C=CC1=O [Comparative Example 6, reference compound] | 2.76 | 13.74 | 9.06 | – | – | – | – | – | –
11 | CC[C@H](C)[C@@H]([C@@H](CC(=O)N1CCC[C@H]1[C@H](OC)[C@@H](C)C(=O)N[C@H](C)[C@@H](O)c1ccccc1)OC)N(C)C(=O)[C@@H](NC(=O)[C@H](C(C)C)N(C)C(=O)OCc1ccc(NC(=O)CNC(=O)[C@H](Cc2ccccc2)NC(=O)CNC(=O)CNC(=O)CCCCCN2C(=O)C=CC2=O)cc1)C(C)C [Comparative Example 1, reference compound] ({Hexanoyl(6-maleimido)}-GGFG[PABC][NMeV]V[Dil][Dolaproine]-X3) | 1.03 | 38.31 | 23.50 | – | – | – | – | – | –

Source: patent US20240293570A1 (priority 2021, published 2024)
